Patent US20230227838A1, “ENHANCED CELL SURVIVAL AGAINST BIOTIC AND ABIOTIC STRESSES THROUGH SALICYLICK ACID-INDUCED NPR1 CONDENSATES” (priority 2020, published 2023)

Key:
[1] = system: cytoplasmic condensates (SINCs); assay: Confocal imaging of localization and condensate (body) formation of GFP-fused NPR proteins and variants; format: cell-based, Nicotiana benthamiana
Experimental: (§1) Plant transformation: For plant transformations, the Agrobacterium tumefaciens strain GV3101 was transformed with plant binary vectors carrying the indicated transgenes. For stable expression in Arabidopsis, a floral dipping method was used. For transient expression in N benthamiana, the Agrobacterium carrying the indicated construct was cultured overnight at 28° C. in Luria-Bertani (LB) broth medium supplemented with appropriate antibiotics: spectinomycin (100 μg/ml), kanamycin (50 μg/ml), gentamycin (50 μg/ml), and rifampicin (25 μg/ml). The obtained culture was re-inoculated at 1:10 into fresh growth media with antibiotics and grown for another 4 hr. Cells were then spun down at 1,600 g for 10 min, and inoculum was prepared by resuspending cells to OD600 nm=1 in double distilled water (DDW) containing 200 μM acetosyringone (Sigma). Unless otherwise stated, for co-IP, co-localization, and BiFC assays in N. benthamiana, the proteins were co-expressed at 1:1 mixture of the relevant Agrobacteria inoculums. In all BiFC assays, the pair of YN/YC fusions was co-expressed together with free mCherry to mark the cytoplasm and nucleus, mCherry-NLS to mark the nucleus only, or mCherry-fused test proteins for co-localization analysis. The inoculum was pressure infiltrated into N. benthamiana leaves at the abaxial side using 1 ml syringe without the needle. Due to low overall levels of NPR1-GFP in transgenic plants, a transient expression assay in Arabidopsis seedlings was used to monitor NPR1-GFP subcellular localization after SA treatment (FIG. 2B). To limit the imaging time in this transient assay (2 hours), a higher baseline SA concentration had to be used. Seeds of WT (Col-0) Arabidopsis were germinated on solid half-strength Murashige and Skoog (1/2 MS) medium and grown for 4 days. Agrobacterium carrying the indicated constructs was grown overnight in LB medium supplemented with appropriate antibiotics. The obtained culture was re-inoculated at 1:10 into virulence induction medium [50.78 mM MES, 0.5% Glucose, 1.734 mM NaH2PO4, 5% of 20X-AB mix (373.9 mM NH4C1, 24.34 mM MgSO4, 40.23 mM KCl, 1.36 mM CaCl2 and 0.18 mM FeSO4·7H2O), 200 μM acetosyringone] supplemented with 25 μg/ml rifampicin and grown for another 24 hr at 28° C. to OD600=0.8 (inoculum). Seedlings were vacuum-infiltrated with the inoculum, and at 48 hpi (hours post inoculation), treatments were performed by submerging the transformed seedlings in water or SA solution at indicated concentrations for 2 hr. Entire cotyledons were sampled for microscopy.
Confocal laser scanning microscopy. Unless otherwise indicated, all imaging data and micrographs for single protein imaging, co-localizations, BiFC and time-lapse were obtained from the transient expression in N. benthamiana using the relevant Agrobacteria strains. All imaging was done with confocal laser scanning fluorescence microscopy using Zeiss 880 airyscan inverted confocal microscope with a 40×/1.2 water correction objective. GFP (eGFP) was excited with a 488 nm argon laser and emission was collected with a 505-530 nm band pass filter. YFP was excited with an argon laser using a 514 nm beam splitter, and emission was detected with a 520-555 nm band pass filter. mCherry was excited with a 561 nm diode laser, and emission was detected with a 575-615 nm band pass filter. When eGFP/YFP were imaged together with mCherry, a spectral GASP detector was used to collect emission from eGFP/YFP. Propidium iodide (PI) was excited with 488 nm argon laser and emission was detected with a 590-620 nm band pass filter. Time-lapse imaging was carried out on live leaf tissue samples from N. benthamiana plants transiently expressing the protein of interest. Image acquisition was done in 5 min intervals for the duration of 2 hr by scanning 30 consecutive focal planes along the Z-axis covering the entire thickness of an epidermal cell. Z-projection was done to each time frame stack before composing a final time-lapse file. […]

CUL3 = assay: Co-IP of Myc-CUL3 with HA-fused NPR1 or variants; format: binding, Arabidopsis thaliana; details: 1 mM SA for 5 hr
Experimental: as §1
Protein analysis and IP. Recombinant protein analysis was performed using transient expression in N. benthamiana, or stable over-expression in transgenic Arabidopsis, or expression in E. coli. Total protein extraction from plants was performed by homogenizing leaf tissue in the plant extraction buffer [50 mM Tris-HCl (pH 7.5), 150 mM NaCl, 5 mM EDTA, 0.2% Triton X-100, 0.2% Nonidet P-40] supplemented with 1 mM PMSF, 100 μM MG132, and EDTA-free protease inhibitor cocktail (Roche). For ubiquitinated protein analysis in plants, 100 μM of DUB (deubiquitinase) inhibitor (LifeSensors) and 10 mM NEM were added. Next, the lysates were cleared by centrifugation at 14,000 rpm for 15 min followed by filtering through a 0.2 μm filter. […] Pull-downs or IP experiments were done on total protein extracts by incubating protein samples in the lysis buffer overnight with indicated affinity tag or antibody conjugated to agarose or magnetic beads: GFP-trap agarose beads (Chromotek) for GFP fusions; RFP-trap agarose beads (Chromotek) for mCherry fusions; anti-HA magnetic beads (ThermoFisher) for HA tag fusions; anti-DYKDDDDK coupled magnetic agarose (ThermoFisher) for FLAG tag fusions; and glutathione magnetic agarose (ThermoFisher) for GST fusions. Unless otherwise indicated, after pull-down/IP, beads were washed 3 times and proteins were eluted by boiling in the 2×SDS sample buffer. […]

[2] = system: Psm ES4326/AvrRpt2-mediated cell death; assay: Cell death (conductivity/electrolyte leakage, trypan blue) after Psm ES4326/AvrRpt2 inoculation; format: in vivo, Arabidopsis thaliana; details: transgenic plants expressing the mutant in npr1-2 background; 1 mM SA 24 hr before inoculation
Experimental: Chemical treatment, pathogen infection and cell death assays. […] At 2 days, the bacterial colonies were scored.
Trypan blue staining. Leaves of three-week-old Arabidopsis infected with Psm ES4326/AvrRpt2 were sampled at 1 dpi, boiled in 95% ethanol until completely bleached, followed by boiling for 3 min in a 1:1 mixture of 95% ethanol and staining solution (10 ml lactic acid, 10 ml glycerol, 10 g phenol and 10 mg trypan blue, dissolved in 10 ml DDW). The leaves were then de-stained in 2.5 g/ml chloral hydrate solution and transferred to 70% glycerol for subsequent imaging.

PR1 promoter = PR1 promoter activity, dual luciferase assay; format: cell-based, Nicotiana benthamiana; details: 2 mM SA for 24 hr
Source text: PR1 promoter activity and dual luciferase assay. For promoter transactivation assays, the PR1 promoter reporter (pPR1:DUAL-LUC) was transiently co-expressed in N. benthamiana together with free HA, or HA-fused WT NPR1 or npr1 mutants (effectors) followed by treatment with SA at 1 dpi. At 2 dpi (24 hr after SA treatment), leaf discs were collected, ground in liquid nitrogen, and lysed with the PLB buffer of the Dual-Luciferase Reporter Assay System (Promega, E1910). Lysate was spun down at 12,000 g for 1 min, and 10 μl was taken for measuring FLUC and RLUC activities according to manufacturer's instructions using a Victor3 plate reader (PerkinElmer). At 25° C., substrates for FLUC and RLUC were added using the automatic injector and after 3 s shaking and 3 s delay, the signals were captured for 3 s and recorded as counts per second. To obtain the PR1 promoter activity, the ratio of F-LUC and R-LUC activities was calculated for each effector and plotted relative to that of free HA.

B1: rdr3: NPR1 with cysteine cluster of RDR3 mutated (C511/521/529A) (protein)
chain: MDTTIDGFADSYEISSTSFVATDNTDSSIVYLAAEQVLTGPDVSALQLLSNSFESVFDSPDDFYSDAKLVLSDGREVSFHRCVLSARSSFFKSALAAAKKEKDSNNTAAVKLELKEIAKDYEVGFDSVVTVLAYVYSSRVRPPPKGVSECADENCCHVACRPAVDFMLEVLYLAFIFKIPELITLYQRHLLDVVDKVVIEDTLVILKLANICGKACMKLLDRCKEIIVKSNVDMVSLEKSLPEELVKEIIDRRKELGLEVPKVKKHVSNVHKALDSDDIELVKLLLKEDHTNLDDACALHFAVAYCNVKTATDLLKLDLADVNHRNPRGYTVLHVAAMRKEPQLILSLLEKGASASEATLEGRTALMIAKQATMAVECNNIPEQCKHSLKGRLCVEILEQEDKREQIPRDVPPSFAVAADELKMTLLDLENRVALAQRLFPTEAQAAMEIAEMKGTCEFIVTSLEPDRLTGTKRTSPGVKIAPFRILEEHQSRLKALSKTVELGKRFFPRASAVLDQIMNAEDLTQLAAGEDDTAEKRLQKKQRYMEIQETLKKAFSEDNLELGNSSLTDSTSSTSKSTGGKRSNRKLSHRRR
modifications: A. thaliana npr1 rdr3 protein
**Q.** B1 was tested. Which “SA-induced cytoplasmic body/condensate (SINC) formation” value ([1]; 5 mM SA for 2 hr) did it give?
**A.** Its value is “completely abolished the SA-induced condensation in both cytoplasm and nucleus”.

**Q.** What about the “nuclear accumulation (nuclear-cytoplasmic partitioning)” value ([1]; absence of SA, compared to WT) of the same molecule?
**A.** The value was “increased nuclear accumulation”.

**Q.** What about the “condensate formation in the absence of SA (constitutive)” value ([1]; no SA treatment / mock) of the same molecule?
**A.** Its value is “no effect on protein state in untreated cells”.

**Q.** What about the “CUL3 pull-down signal in co-IP” value (CUL3) of the same molecule?
**A.** Its value is “little interaction”.

**Q.** And the “protection against cell death induced by Psm ES4326/AvrRpt2 (SA-mediated survival phenotype)” value [2]?
**A.** The value was “partially compromised the protection against cell death”.

**Q.** And the “transcriptional co-activation function (PR1 promoter transactivation)” value (PR1 promoter)?
**A.** Its value is “reduced transcriptional co-activation function”.
